Data reported in patent US9289478B2, “Formulations of tumour-associated peptides binding to human leukocyte antigen (HLA) class I or class II molecules for vaccine” (IMMATICS BIOTECHNOLOGIES GMBH, priority 2008, dated 2016).
Ends that are not written are not given here.

Legend:
Format in all cases: physicochemical
[1] = Stability of renal cell cancer vaccine test formulations at +25° C. and +40° C. by analytical HPLC assay; settings: especially at +40° C.
Description: Various lyophilisates were tested with respect to stability of each individual peptide at +25° C. and […] using an analytical HPLC assay.
The peptides according to the SEQ ID NOs: 1 to 10 were lyophilised without any excipients and by addition of mannitol and Poloxamer 188 (LUTROL F68®) or TWEEN 80®.
The following test formulations were produced and stability were assessed at +25° C. and +40° C. by analytical HPLC assay:
Initial HPLC measurements have been performed for each formulation before storage in a climate chamber. For this purpose, the content of two vials was completely dissolved in 30% acetic acid and measured by RP-HPLC by repeat determination. To assure comparability between the individual measurements, β-Naphtyl-alanine was used as internal standard and lyophilized together with the peptides.
After 7, 14, 21, and 28 days, another two vials were removed from the climate chamber to assess stability.
Data assessment was performed by repeat determination of one vial. For one time point and temperature, two independent vials were used to obtain four data points in total. These values have been taken to calculate the standard deviation shown as error bars in the relevant diagram.

[2] = HPLC-assay for in-use stability after reconstitution with 4.2% sodium hydrogen carbonate solution (Example 2, peptides SEQ ID NO 1-10)
Description: Resolubilization procedure: For clinical trials the above described formulation is dissolved in 700 μl sodium hydrogen carbonate (4.2%). Remove plastic cap from one vial. Unpack and remove sodium hydrogen carbonate (4.2%) from the refrigerator at least 30 min before resolubilization to bring them up to room temperature before injection. Prepare syringe and needle for reconstitution. Use aseptic technique to take 700 μL of diluent for reconstitution of the lyophilisate. To dissolve the lyophilisate, the vial and the diluent shall be shaken vigorously for 1 minute, check whether solution is clear, otherwise continue shaking for another minute until the solution is clear. 10 to 30 minutes after GM-CSF injection, use a new syringe to administer 500 μL reconstituted formulation i.d. at the same site. Administration has to occur within 1 h after reconstitution. Dissolved lyophilisate may be stored aseptically at room temperature for up to 1 hour following reconstitution.
However, a decrease of two specific peptides, i.e. IMA-CCN-001 and IMA-RGS-001 took place (see Table 6). As these peptides contain a cysteine residue, time-depending dimerization takes place.
(§1) Identity, purity and peptide content are determined by analytical RP-HPLC chromatography. Detection wavelength was 220 nm.

[3] = HPLC-assay for stability of peptides in lyophilised formulation on storage for 3 months (Example 4); settings: for stability of peptides in formulation, 1 M: 1 month; for stability of peptides in formulation, 2 M: 2 months; for stability of peptides in formulation, 3 M: 3 months
Description: as §1

[4] = HPLC-assay for in-use stability after reconstitution with 4.2% sodium hydrogen carbonate solution (Example 3, peptides SEQ ID NO 11-23)
Description: For clinical trials the above described formulation is dissolved in 700 μl sodium hydrogen carbonate (4.2%). To dissolve the lyophilisate, the vial and the diluent shall be shaken vigorously for 1 minute, check whether solution is clear, otherwise continue shaking for another minute until the solution is clear. Administration of 500 μL of the solution has to occur within 1 h after reconstitution. Dissolved lyophilisate may be stored aseptically at room temperature for up to 1 hour following reconstitution.
as §1

[5] = Solubility of peptide in 90% acetic acid and in water
Excerpt: Advantageously, the formulation according to the invention is suitable for stable formulations containing very hydrophobic peptides (for example IMA-CHI-001; SEQ ID NO: 23).

With “LAALPHSCL (listed as Homo sapiens) [RGS-001, RGS-5 tumour-associated peptide]” the “peptide signal in formulations containing TWEEN 80” value [1] was “enhanced degradation”, the “in-use stability, peptide by HPLC-assay” value ([2]; +mannitol/lutrol, 1 h after reconstitution) was 97.9% and the “in-use stability, peptide by HPLC-assay” value ([2]; +mannitol/lutrol, 2 h after reconstitution) was 95.5%. For the same sequence, the “in-use stability, peptide by HPLC-assay” value ([2]; +mannitol/lutrol, 3 h after reconstitution) was 94.2%, the “in-use stability, peptide by HPLC-assay” value ([2]; +mannitol/lutrol, 4 h after reconstitution) was 91.6% and the “in-use stability, peptide by HPLC-assay” value ([2]; +mannitol/lutrol, 5 h after reconstitution) was 88.0%. The “in-use stability, peptide by HPLC-assay” value ([2]; +mannitol/lutrol, 6 h after reconstitution) was 86.8%, the “in-use stability, peptide by HPLC-assay” value ([2]; +mannitol/lutrol, Initial (starting value set to 100%)) was 100.0% and the “stability after reconstitution (in words)” value ([2]; Example 2 formulation, 4.2% sodium hydrogen carbonate) was “decrease”. For the same sequence, the “in-use stability, peptide by HPLC-assay” value ([2]; no excipients, 1 h after reconstitution) was 90.9%, the “in-use stability, peptide by HPLC-assay” value ([2]; no excipients, 2 h after reconstitution) was 77.8% and the “in-use stability, peptide by HPLC-assay” value ([2]; no excipients, 3 h after reconstitution) was 64.6%. For the same sequence, the “in-use stability, peptide by HPLC-assay” value ([2]; no excipients, Initial (starting value set to 100%)) was 100.0%.
For “LTFGDVVAV (listed as Homo sapiens) [FABP7-001]”, the “stability of peptides in formulation, 1 M” value (shortened to “stability of peptides … 1 M”) ([3]; +5° C. +/- 3° C.) was 99.08 % of Initial, the “stability of peptides in formulation, 2 M” value (“stability of peptides … 2 M” below) ([3]; +5° C. +/- 3° C.) was 98.15 % of Initial and the “stability of peptides in formulation, 3 M” value (from here on “stability of peptides … 3 M”) ([3]; +5° C. +/- 3° C.) was 98.66 % of Initial. For the same sequence, the “stability of peptides in formulation, INITIAL” value (shortened to “stability of peptides … INITIAL”) ([3]; +5° C. +/- 3° C.) was 100.0%, the “stability of peptides … 1 M” value ([3]; +25° C. +/- 2° C.) was 98.43 % of Initial and the “stability of peptides … 2 M” value ([3]; +25° C. +/- 2° C.) was 97.71 % of Initial. The “stability of peptides … 3 M” value ([3]; +25° C. +/- 2° C.) was 98.67 % of Initial, the “stability of peptides … INITIAL” value ([3]; +25° C. +/- 2° C.) was 100.0% and the “stability of peptides … 1 M” value ([3]; -20° C. +/- 5° C.) was 99.09 % of Initial. For the same sequence, the “stability of peptides … 2 M” value ([3]; -20° C. +/- 5° C.) was 97.60 % of Initial, the “stability of peptides … 3 M” value ([3]; -20° C. +/- 5° C.) was 98.39 % of Initial and the “stability of peptides … INITIAL” value ([3]; -20° C. +/- 5° C.) was 100.0%. The “in-use stability, Peptide [%]” value ([4]; +Mannitol/Lutrol, 2h) was 100.9%, the “in-use stability, Peptide [%]” value ([4]; +Mannitol/Lutrol, 4h) was 100.7% and the “in-use stability, Peptide [%]” value ([4]; +Mannitol/Lutrol, 6h) was 100.6%. For the same sequence, the “in-use stability, Peptide [%]” value ([4]; +Mannitol/Lutrol, Initial) was 100.0%, the “in-use stability, Peptide [%]” value ([4]; no excipients, 2h) was 100.5% and the “in-use stability, Peptide [%]” value ([4]; no excipients, 4h) was 100.9%. The “in-use stability, Peptide [%]” value ([4]; no excipients, 6h) was 96.3% and the “in-use stability, Peptide [%]” value ([4]; no excipients, Initial) was 100.0%.
For “NLDTLMTYV (listed as Homo sapiens) [NLGN4X-001, Neuroligin 4, X-linked peptide]”, the “stability of peptides … 1 M” value ([3]; +5° C. +/- 3° C.) was 99.12 % of Initial, the “stability of peptides … 2 M” value ([3]; +5° C. +/- 3° C.) was 98.24 % of Initial and the “stability of peptides … 3 M” value ([3]; +5° C. +/- 3° C.) was 98.84 % of Initial. The “stability of peptides … INITIAL” value ([3]; +5° C. +/- 3° C.) was 100.0%, the “stability of peptides … 1 M” value ([3]; +25° C. +/- 2° C.) was 97.90 % of Initial and the “stability of peptides … 2 M” value ([3]; +25° C. +/- 2° C.) was 96.30 % of Initial. For the same sequence, the “stability of peptides … 3 M” value ([3]; +25° C. +/- 2° C.) was 96.41 % of Initial, the “stability of peptides … INITIAL” value ([3]; +25° C. +/- 2° C.) was 100.0% and the “stability of peptides … 1 M” value ([3]; -20° C. +/- 5° C.) was 99.05 % of Initial. For the same sequence, the “stability of peptides … 2 M” value ([3]; -20° C. +/- 5° C.) was 97.60 % of Initial, the “stability of peptides … 3 M” value ([3]; -20° C. +/- 5° C.) was 98.62 % of Initial and the “stability of peptides … INITIAL” value ([3]; -20° C. +/- 5° C.) was 100.0%. For the same sequence, the “in-use stability, Peptide [%]” value ([4]; +Mannitol/Lutrol, 2h) was 100.8%, the “in-use stability, Peptide [%]” value ([4]; +Mannitol/Lutrol, 4h) was 100.9% and the “in-use stability, Peptide [%]” value ([4]; +Mannitol/Lutrol, 6h) was 100.5%. The “in-use stability, Peptide [%]” value ([4]; +Mannitol/Lutrol, Initial) was 100.0%, the “in-use stability, Peptide [%]” value ([4]; no excipients, 2h) was 99.9% and the “in-use stability, Peptide [%]” value ([4]; no excipients, 4h) was 100.5%. For the same sequence, the “in-use stability, Peptide [%]” value ([4]; no excipients, 6h) was 95.7% and the “in-use stability, Peptide [%]” value ([4]; no excipients, Initial) was 100.0%.
In the case of SLWAGVVVL [CHI-001], the solubility ([5]; 90% acetic acid) is reported as ~2.9 mg/mL, the solubility in water ([5]; water) is reported as “very insoluble” and the “in-use stability, Peptide [%]” value ([4]; +Mannitol/Lutrol, 2h) is reported as 100.0%. The “in-use stability, Peptide [%]” value ([4]; +Mannitol/Lutrol, 6h) was 100.2%, the “in-use stability, Peptide [%]” value ([4]; +Mannitol/Lutrol, Initial) was 100.0% and the “in-use stability, Peptide [%]” value ([4]; no excipients, 2h) was 102.2%. The “in-use stability, Peptide [%]” value ([4]; no excipients, 6h) was 90.6% and the “in-use stability, Peptide [%]” value ([4]; no excipients, Initial) was 100.0%.
